Experimental data from US20240002540A1.

Tests used:
[1] = target: human CD3 on T cells (Jurkat cells; human peripheral blood CD4+ and CD8+ T-cells) (human) (UniProt P07766); assay: flow cytometry on Jurkat cells
[2] = target: FcγRI recombinant protein, His-tagged (UniProt P12314); assay: SPR (Biacore), His-tagged receptor captured by anti-His antibody on CM5 chip, antibody as analyte
Chain of FcγRI recombinant protein, His-tagged (P12314 16-288 limits assumed): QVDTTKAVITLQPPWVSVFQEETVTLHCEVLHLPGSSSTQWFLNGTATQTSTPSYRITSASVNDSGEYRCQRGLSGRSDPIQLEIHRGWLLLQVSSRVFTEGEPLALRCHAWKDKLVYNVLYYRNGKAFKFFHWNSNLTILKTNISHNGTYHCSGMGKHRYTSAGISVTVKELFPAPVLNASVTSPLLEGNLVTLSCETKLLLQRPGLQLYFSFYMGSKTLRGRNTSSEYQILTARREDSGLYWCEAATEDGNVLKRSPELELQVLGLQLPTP

Q: With OKT3-hIgG1 (antibody) as the substance, how does the affinity, FACS (Jurkat) [1] read?
A: 0.27 nM

Q: Which Kd [2] does the source give for IgG4 isotype control (antibody) here?
A: 14 nM
